Reference: publication doi:10.1101/2021.10.01.462762 (bioRxiv, 2021)

B1: PdeL, full-length c-di-GMP phosphodiesterase and transcription factor of E. coli (enzyme, UniProt P21514 1-362, looked up)
chain: MNSCDFRVFLQEFGTTVHLSLPGSVSEKERLLLKLLMQGMSVTEISQYRNRSAKTISHQKKQLFEKLGIQSDITFWRDIFFQYNPEIISATGSNSHRYINDNHYHHIVTPEAISLALENHEFKPWIQPVFCAQTGVLTGCEVLVRWEHPQTGIIPPDQFIPLAESSGLIVIMTRQLMKQTADILMPVKHLLPDNFHIGINVSAGCFLAAGFEKECLNLVNKLGNDKIKLVLELTERNPIPVTPEARAIFDSLHQHNITFALDDFGTGYATYRYLQAFPVDFIKIDKSFVQMASVDEISGHIVDNIVELARKPGLSIVAEGVETQEQADLMIGKGVHFLQGYLYSPPVPGNKFISEWVMKAGG
B2: CB CDB oligo (4695/4696) (dsDNA)
DNA 1: TGCTGAATGGATTCAGTCTTAATGAGTGGG
DNA 2: CCCACTCATTAAGACTGAATCCATTCAGCA
B3: PdeL L168R, tetramerization-deficient variant (enzyme, E. coli)
chain: NSCDFRVFLQEFGTTVHLSLPGSVSEKERLLLKLLMQGMSVTEISQYRNRSAKTISHQKKQLFEKLGIQSDITFWRDIFFQYNPEIISATGSNSHRYINDNHYHHIVTPEAISLALENHEFKPWIQPVFCAQTGVLTGCEVLVRWEHPQTGIIPPDQFIPLAESSGRIVIMTRQLMKQTADILMPVKHLLPDNFHIGINVSAGCFLAAGFEKECLNLVNKLGNDKIKLVLELTERNPIPVTPEARAIFDSLHQHNITFALDDFGTGYATYRYLQAFPVDFIKIDKSFVQMASVDEISGHIVDNIVELARKPGLSIVAEGVETQEQADLMIGKGVHFLQGYLYSPPVPGNKFISEWVMKAGG

Tests used:
mass photometry = biological target: the molecule itself; assay: mass photometry
MST = biological target: the molecule itself; assay: MST
SEC-MALS = biological target: the molecule itself; assay: SEC-MALS
PdeL;Cra = PdeL;Cra (Escherichia coli;Escherichia coli, UniProt P21514;P0ACP1 1-362;1-334, |); assay: EMSA
Cra = Cra (Escherichia coli, UniProt P0ACP1 1-334); assay: EMSA
Sequence of Cra (P0ACP1 whole entry): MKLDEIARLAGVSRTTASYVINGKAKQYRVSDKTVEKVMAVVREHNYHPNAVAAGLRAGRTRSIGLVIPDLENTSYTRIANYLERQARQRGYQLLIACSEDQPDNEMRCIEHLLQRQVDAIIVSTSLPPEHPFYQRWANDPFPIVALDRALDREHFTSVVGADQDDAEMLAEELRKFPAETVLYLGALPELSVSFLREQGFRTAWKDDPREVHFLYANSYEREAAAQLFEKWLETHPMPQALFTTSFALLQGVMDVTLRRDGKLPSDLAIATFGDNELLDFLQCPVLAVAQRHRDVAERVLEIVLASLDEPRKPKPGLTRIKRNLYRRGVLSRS

Sequence of PdeL;Cra (P0ACP1 whole entry, chain 2 of 2, one chain of several): as the sequence (P0ACP1 whole entry) above

Binder | stoichiometry N (mass photometry) | Kd (MST) | stoichiometry N (SEC-MALS) | Kd (PdeL;Cra) | Kd (Cra)
B1 | 2 | 9000 nM | 4 |  | 
B2 |  |  |  | 76 nM | 49 nM
B3 |  |  | 2 |  | 
